The values below come from patent US20230406921A1 (MABWELL SHANGHAI BIOSCIENCE, published 2023).

In test [1] the target is T1, CD47 on the surface of tumor cells (human, UniProt Q08722 19-323).
T1 construct: whole, on cells; Same protein as m4; also called CD47 antigen on the surface of U937 and CCRF cells; SKOV-3
The test is described as follows: FACS, tumor cells, 2 nM.
Experimental: (§1) The difference between the binding of the mutant to CD47 on the surface of tumor cells and CD47 on the surface of red blood cells was evaluated.

Test [2] has as its target T2, recombinant antigen of the extracellular region of CD47 (Sino Biological, Cat: 12283-H08H) (human, UniProt Q08722 19-139).
T2 construct: extracellular domain; also called recombinant CD47 extracellular region; CD47 recombinant protein
The test is described as follows: Fortebio BLI, recombinant CD47.

In test [3] the target is T3, CD47 on the surface of human red blood cells (human, UniProt Q08722 19-323).
T3 construct: whole, on cells; Same protein as m3, on red blood cells; also called hRBC; RBC
Put plainly: FACS, RBC, 200 nM.
Experimental: as §1

Test [4] has as its target T1, CD47 on the surface of tumor cells. Put plainly: FACS, tumor cells, 1 nM.
Experimental: as §1
The target in test [5] is T2, recombinant antigen of the …. The test is described as follows: Fortebio BLI, recombinant CD47 extracellular region.

B1: hz140-Hm13/hz182-Lm7 (antibody, V domains shown)
VH: EVQLVQSGAEVKKPGASVKVSCKASGYKFTNYVMSWVRQAPGQRLEWMGYINPYNDAIKYNEKFTGRVTITRDTSASTAYMELSSLRSEDTAVYYCAREGDFYANYGRLGFAYWGQGTLVTVSS
VL: DIQMTQSPSSLSASVGDRVTITCRASQDISNYLNWYQQKPGKAPKLLLYYTSRLHSGVPSRFSGSGSGTDYTLTISSLQPEDFATYFCQQGAGFPYTFGGGTKVEIKR
As for B1, the “FACS (MFI)” value in test [1] amounted to 17800 MFI. For the same molecule, in test [2], the Kd is 16.6 nM and the kon worked out at 201000 M⁻¹ s⁻¹. Also, the “FACS (MFI)” value in test [3] stood at 349 MFI.

B2: h140Hm13/h140Lm8 (antibody, V domains shown)
VH: EVQLVQSGAEVKKPGASVKVSCKASGYKFTNYVMSWVRQAPGQRLEWMGYINPYNDAIKYNEKFTGRVTITRDTSASTAYMELSSLRSEDTAVYYCAREGDFYANYGRLGFAYWGQGTLVTVSS
VL: DIQMTQSPSSLSASVGDRVTITCRASQDITNYLNWYQQKPGKAPKLLIYYTSRLHSGVPSRFSGSGSGTDYTFTISSLQPEDIATYFCQQGDTRPYTFGGGTKVEIK
notes: also called h140Lmut8; mut8
For B2, in test [4], the “FACS (MFI)” value is 26400 MFI.

B3: 140Hm10/hz140L (Table 2) (antibody, V domains shown)
VH: QVQLVQSGAEVKKPGASVKVSCKASGYKFTNYVMSWVRQAPGQRLEWMGYINPYNDAIKYNEKFTGRVTITRDTSASTAYMELSSLRSEDTAVYYCAREGDFYANYGRLGFAYWGQGTLVTVSS
VL: DIQMTQSPSSLSASVGDRVTITCRASQDITNYLNWYQQKPGKAPKLLIYYTSRLHSGVPSRFSGSGSGTDYTFTISSLQPEDIATYFCQQGDTFPRTFGGGTKVEIK
notes: also called hz140-Hm/hz140L
For the molecule B3, in test [5], the Kd came out at 7.83 nM, the koff worked out at 0.00202 s⁻¹ and the kon stood at 258000 M⁻¹ s⁻¹.

B4: hz140-Hm13/hz182-Lm1 (antibody, V domains shown)
VH: EVQLVQSGAEVKKPGASVKVSCKASGYKFTNYVMSWVRQAPGQRLEWMGYINPYNDAIKYNEKFTGRVTITRDTSASTAYMELSSLRSEDTAVYYCAREGDFYANYGRLGFAYWGQGTLVTVSS
VL: DIQMTQSPSSLSASVGDRVTITCRASQDISNYLNWYQQKPGKAPKLLIYYTSRLHSGVPSRFSGSGSGTDYTLTISSLQPEDFATYFCQQGAGRPYTFGGGTKVEIKR
notes: also called hz182-Lml
Regarding B4, the “FACS (MFI)” value turned out to be 15500 MFI in test [1] and 2320 MFI in test [3]. In addition, in test [2], the Kd amounted to 7.06 nM. The kon in test [2] stood at 134000 M⁻¹ s⁻¹.

B5: 140Hm9/hz140L (Table 2) (antibody, V domains shown)
VH: QVQLVQSGAEVKKPGASVKVSCKASGYKFTNYVMHWVRQAPGQRLEWMGYINPYNEGIKYNEKFTGRVTITRDTSASTAYMELSSLRSEDTAVYYCAREGDFYANYGRLGFAYWGQGTLVTVSS
VL: DIQMTQSPSSLSASVGDRVTITCRASQDITNYLNWYQQKPGKAPKLLIYYTSRLHSGVPSRFSGSGSGTDYTFTISSLQPEDIATYFCQQGDTFPRTFGGGTKVEIK
notes: also called hz140-Hm/hz140L
With B5, in test [5], the Kd is 3.92 nM, the koff amounted to 0.000847 s⁻¹ and the kon turned out to be 216000 M⁻¹ s⁻¹.

B6: h140Hm13/h140Lm18 (antibody, V domains shown)
VH: EVQLVQSGAEVKKPGASVKVSCKASGYKFTNYVMSWVRQAPGQRLEWMGYINPYNDAIKYNEKFTGRVTITRDTSASTAYMELSSLRSEDTAVYYCAREGDFYANYGRLGFAYWGQGTLVTVSS
VL: DIQMTQSPSSLSASVGDRVTITCRASQDITNYLNWYQQKPGKAPKLLIYYTSRLQSGVPSRFSGSGSGTDYTFTISSLQPEDIATYFCQQGDTNPYTFGGGTKVEIK
As to B6, the “FACS (MFI)” value in test [4] was 9920 MFI.

B7: 140Hm8/hz140L (Table 2) (antibody, V domains shown)
VH: QVQLVQSGAEVKKPGASVKVSCKASGYKFTNYVMHWVRQAPGQRLEWMGYINPYNDAIKYNEKFTGRVTITRDTSASTAYMELSSLRSEDTAVYYCAREGDFYANYGRLGFAYWGQGTLVTVSS
VL: DIQMTQSPSSLSASVGDRVTITCRASQDITNYLNWYQQKPGKAPKLLIYYTSRLHSGVPSRFSGSGSGTDYTFTISSLQPEDIATYFCQQGDTFPRTFGGGTKVEIK
notes: also called hz140-Hm/hz140L
With B7, in test [5], the Kd is 3.87 nM, the koff came out at 0.00094 s⁻¹ and the kon was 243000 M⁻¹ s⁻¹.

B8: h140Hm13/h140Lm13 (antibody, V domains shown)
VH: EVQLVQSGAEVKKPGASVKVSCKASGYKFTNYVMSWVRQAPGQRLEWMGYINPYNDAIKYNEKFTGRVTITRDTSASTAYMELSSLRSEDTAVYYCAREGDFYANYGRLGFAYWGQGTLVTVSS
VL: DIQMTQSPSSLSASVGDRVTITCRASQDITNYLNWYQQKPGKAPKLLIYYTSRLHSGVPSRFSGSGSGTDYTFTISSLQPEDIATYFCQQGDTFPYTFGGGTKVEIK
With B8, the “FACS (MFI)” value in test [4] is 10300 MFI.

B9: hz140-Hm13/hz182-Lm2 (antibody, V domains shown)
VH: EVQLVQSGAEVKKPGASVKVSCKASGYKFTNYVMSWVRQAPGQRLEWMGYINPYNDAIKYNEKFTGRVTITRDTSASTAYMELSSLRSEDTAVYYCAREGDFYANYGRLGFAYWGQGTLVTVSS
VL: DIQMTQSPSSLSASVGDRVTITCRASQDISNYLNWYQQKPGKAPKLLLYYTSRLHSGVPSRFSGSGSGTDYTFTISSLQPEDFATYFCQQGAGRPYTFGGGTKVEIKR
As for B9, the “FACS (MFI)” value in test [1] turned out to be 30400 MFI; in test [3] it was 1670 MFI. Also, in test [2], the Kd was 1410 nM. For the same molecule, the kon in test [2] was determined as 94700 M⁻¹ s⁻¹.

B10: hz140-Hm13/hz182-Lm4 (antibody, V domains shown)
VH: EVQLVQSGAEVKKPGASVKVSCKASGYKFTNYVMSWVRQAPGQRLEWMGYINPYNDAIKYNEKFTGRVTITRDTSASTAYMELSSLRSEDTAVYYCAREGDFYANYGRLGFAYWGQGTLVTVSS
VL: DIQMTQSPSSLSASVGDRVTITCRASQDITNYLNWYQQKPGKAPKLLLYYTSRLHSGVPSRFSGSGSGTDYTLTISSLQPEDFATYFCQQGAGRPYTFGGGTKVEIKR
Take B10: the “FACS (MFI)” value in test [1] was 28500 MFI; in test [3], 1840 MFI. Further, the Kd in test [2] was determined as 989 nM. Further, in test [2], the kon turned out to be 87900 M⁻¹ s⁻¹.

B11: h140Hm13/h140Lm17 (antibody, V domains shown)
VH: EVQLVQSGAEVKKPGASVKVSCKASGYKFTNYVMSWVRQAPGQRLEWMGYINPYNDAIKYNEKFTGRVTITRDTSASTAYMELSSLRSEDTAVYYCAREGDFYANYGRLGFAYWGQGTLVTVSS
VL: DIQMTQSPSSLSASVGDRVTITCRASQDITNYLNWYQQKPGKAPKLLIYYTSRLQSGVPSRFSGSGSGTDYTFTISSLQPEDIATYFCQQGDTEPYTFGGGTKVEIK
For B11, the “FACS (MFI)” value in test [4] stood at 11200 MFI.

B12: h140Hm13/h140Lm12 (antibody, V domains shown)
VH: EVQLVQSGAEVKKPGASVKVSCKASGYKFTNYVMSWVRQAPGQRLEWMGYINPYNDAIKYNEKFTGRVTITRDTSASTAYMELSSLRSEDTAVYYCAREGDFYANYGRLGFAYWGQGTLVTVSS
VL: DIQMTQSPSSLSASVGDRVTITCRASQDITNYLNWYQQKPGKAPKLLIYYTSRLQSGVPSRFSGSGSGTDYTFTISSLQPEDIATYFCQQGDTRPYTFGGGTKVEIK
With B12, in test [4], the “FACS (MFI)” value amounted to 26400 MFI.

B13: hz140-Hm13/hz182-Lm3 (antibody, V domains shown)
VH: EVQLVQSGAEVKKPGASVKVSCKASGYKFTNYVMSWVRQAPGQRLEWMGYINPYNDAIKYNEKFTGRVTITRDTSASTAYMELSSLRSEDTAVYYCAREGDFYANYGRLGFAYWGQGTLVTVSS
VL: DIQMTQSPSSLSASVGDRVTITCRASQDISNYLNWYQQKPGKAPKLLLYYTSRLHSGVPSRFSGSGSGTDYTLTISSLQPEDIATYFCQQGAGRPYTFGGGTKVEIKR
On to B13, for which, in test [1], the “FACS (MFI)” value was determined as 30000 MFI. Also, in test [2], the Kd came to 16.7 nM and the kon came out at 145000 M⁻¹ s⁻¹. For the same molecule, in test [3], the “FACS (MFI)” value was 874 MFI.

B14: h140Hm13/h140Lm10 (antibody, V domains shown)
VH: EVQLVQSGAEVKKPGASVKVSCKASGYKFTNYVMSWVRQAPGQRLEWMGYINPYNDAIKYNEKFTGRVTITRDTSASTAYMELSSLRSEDTAVYYCAREGDFYANYGRLGFAYWGQGTLVTVSS
VL: DIQMTQSPSSLSASVGDRVTITCRASQDITNYLNWYQQKPGKAPKLLIYYTSRLHSGVPSRFSGSGSGTDYTFTISSLQPEDIATYFCQQGAGRPYTFGGGTKVEIK
notes: also called h140Lmut10; mut10
On to B14, for which, in test [4], the “FACS (MFI)” value turned out to be 40900 MFI.

B15: h140Hm13/h140Lm16 (antibody, V domains shown)
VH: EVQLVQSGAEVKKPGASVKVSCKASGYKFTNYVMSWVRQAPGQRLEWMGYINPYNDAIKYNEKFTGRVTITRDTSASTAYMELSSLRSEDTAVYYCAREGDFYANYGRLGFAYWGQGTLVTVSS
VL: DIQMTQSPSSLSASVGDRVTITCRASQDITNYLNWYQQKPGKAPKLLIYYTSRLQSGVPSRFSGSGSGTDYTFTISSLQPEDIATYFCQQGDTSPYTFGGGTKVEIK
As for B15, the “FACS (MFI)” value in test [4] worked out at 12200 MFI.

B16: h140Hm13/h140Lm14 (antibody, V domains shown)
VH: EVQLVQSGAEVKKPGASVKVSCKASGYKFTNYVMSWVRQAPGQRLEWMGYINPYNDAIKYNEKFTGRVTITRDTSASTAYMELSSLRSEDTAVYYCAREGDFYANYGRLGFAYWGQGTLVTVSS
VL: DIQMTQSPSSLSASVGDRVTITCRASQDITNYLNWYQQKPGKAPKLLIYYTSRLQSGVPSRFSGSGSGTDYTFTISSLQPEDIATYFCQQGDTYPYTFGGGTKVEIK
Turning to B16, the “FACS (MFI)” value in test [4] was found to be 7520 MFI.

B17: h140Hm13/h140Lm15 (antibody, V domains shown)
VH: EVQLVQSGAEVKKPGASVKVSCKASGYKFTNYVMSWVRQAPGQRLEWMGYINPYNDAIKYNEKFTGRVTITRDTSASTAYMELSSLRSEDTAVYYCAREGDFYANYGRLGFAYWGQGTLVTVSS
VL: DIQMTQSPSSLSASVGDRVTITCRASQDITNYLNWYQQKPGKAPKLLIYYTSRLQSGVPSRFSGSGSGTDYTFTISSLQPEDIATYFCQQGDTKPYTFGGGTKVEIK
Consider B17, for which, in test [4], the “FACS (MFI)” value was 15700 MFI.

B18: h140Hm13/h140Lm11 (antibody, V domains shown)
VH: EVQLVQSGAEVKKPGASVKVSCKASGYKFTNYVMSWVRQAPGQRLEWMGYINPYNDAIKYNEKFTGRVTITRDTSASTAYMELSSLRSEDTAVYYCAREGDFYANYGRLGFAYWGQGTLVTVSS
VL: DIQMTQSPSSLSASVGDRVTITCRASQDITNYLNWYQQKPGKAPKLLIYYTSRLSSGVPSRFSGSGSGTDYTFTISSLQPEDIATYFCQQGDTRPYTFGGGTKVEIK
As to B18, the “FACS (MFI)” value in test [4] was 19400 MFI.
